The values that follow come from patent publication US5849261.

Several values for one entry are separate records, joined by “and”; a condition that tells them apart may be missing. Equal entries are not always repeated. No end group written: not given here.

Sequences and labels used below:
B1: ReO-complexed P887 (peptide)
peptide: HSDAVFTDNYTRLRKQMAVKKYLNSILNKGC
modifications: (ε-K): lysine 29 linked through its ε-amino group; C-terminal amide; non-radioactive ReO complexed to the chelating moiety
B2: ReO-complexed P917 (peptide)
peptide: HSDAVFTDNYTRLRKQMAVKKYLNSILNC
modifications: C-terminal C(BAT): S-(N6,N9-bis(2-mercapto-2-methylpropyl)-6,9-diazanonan-1-yl)cysteine; C-terminal amide; non-radioactive ReO complexed to the chelating moiety
B3: P917 (peptide)
peptide: HSDAVFTDNYTRLRKQMAVKKYLNSILNC
modifications: C-terminal C(BAT): S-(N6,N9-bis(2-mercapto-2-methylpropyl)-6,9-diazanonan-1-yl)cysteine; C-terminal amide
B4: P887 (peptide)
peptide: B1 peptide
modifications: (ε-K): lysine 29 linked through its ε-amino group to the carboxyl group of the preceding residue; C-terminal amide

The first test deals with VIP receptor on human cells (human). Description: competition with 125I-VIP on HMC1 cells.
In the case of B1, the 50% inhibitory concentration (IC50) (as a rule, the concentration at which inhibition is half-maximal) was determined as 8.5 nM.
Still for that read-out and setting: as for HSDAVFTDNYTRLRKQMAVKKYLNSILN-NH2 [Vasoactive intestinal peptide (VIP)], the figure is 7 nM.
The molecule B2 registered a half-maximal inhibitory concentration (IC50) of 7 nM.
For HSDAVFTDNYTRLRKQMAVKKYLNSILNGGC-NH2 (also: non-radioactive ReO complexed to the chelating moiety) [ReO-complexed P916], the IC50 is 7 nM.
Still for that read-out and setting: for AGCHSDAVFTDNYTRLRKQMAVKKYLNSILN-NH2 (also: non-radioactive ReO complexed to the chelating moiety) [ReO-complexed P915] the value was 15 nM.

A further test shares this target. Description: competition with 125I-VIP on HT29 cells.
Molecule B1 yielded a concentration for half-maximal inhibition (IC50) of 6.6 nM.
Still for that read-out and setting: for HSDAVFTDNYTRLRKQMAVKKYLNSILN-NH2 [Vasoactive intestinal peptide (VIP)] the value was 1.2 nM; for B2, 2.2 nM; for HSDAVFTDNYTRLRKQMAVKKYLNSILNGGC-NH2 (also: non-radioactive ReO complexed to the chelating moiety) [ReO-complexed P916], 8.5 nM.
Still for that read-out and setting: for AGCHSDAVFTDNYTRLRKQMAVKKYLNSILN-NH2 (also: non-radioactive ReO complexed to the chelating moiety) [ReO-complexed P915] the value was 7 nM.

The next test shares this target. Description: competition with 125I-VIP on human PMNCs.
For the molecule B1, the IC50 worked out at 6 nM.
Still for that read-out and setting: as for HSDAVFTDNYTRLRKQMAVKKYLNSILN-NH2 [Vasoactive intestinal peptide (VIP)], the figure is 5.5 nM; as for B2, 2.7 nM.
The same measure, in the same setting: as for HSDAVFTDNYTRLRKQMAVKKYLNSILNGGC-NH2 (also: non-radioactive ReO complexed to the chelating moiety) [ReO-complexed P916], the figure is 6.5 nM.
On to AGCHSDAVFTDNYTRLRKQMAVKKYLNSILN-NH2 (also: non-radioactive ReO complexed to the chelating moiety) [ReO-complexed P915], for which the IC50 was 7.5 nM.

For the next test the target is unchanged. Description: competition with 125I-VIP on KU812 cells.
In turn, B1 came in with an IC50 of 5.2 nM.
On the same count and under the same terms, as for HSDAVFTDNYTRLRKQMAVKKYLNSILN-NH2 [Vasoactive intestinal peptide (VIP)], the figure is 0.8 nM; as for B2, 1 nM.

The target is the same in a further test. Description: competition with 125I-VIP on PANC1 cells.
The molecule B1 displayed a half-inhibitory concentration (IC50) of more than 10 nM.
Same read-out and setting: for HSDAVFTDNYTRLRKQMAVKKYLNSILN-NH2 [Vasoactive intestinal peptide (VIP)] the value was 4.2 nM.
Same read-out and setting: as for B2, the figure is 3.7 nM; as for HSDAVFTDNYTRLRKQMAVKKYLNSILNGGC-NH2 (also: non-radioactive ReO complexed to the chelating moiety) [ReO-complexed P916], 12.5 nM; as for AGCHSDAVFTDNYTRLRKQMAVKKYLNSILN-NH2 (also: non-radioactive ReO complexed to the chelating moiety) [ReO-complexed P915], 14 nM.

For a further test the target is unchanged. Description: competition with 125I-VIP on COLO320 cells.
On to B1, for which the IC50 was found to be 6 nM.
The same measure, in the same setting: as for HSDAVFTDNYTRLRKQMAVKKYLNSILN-NH2 [Vasoactive intestinal peptide (VIP)], the figure is 1.5 nM; as for B2, 2 nM; as for HSDAVFTDNYTRLRKQMAVKKYLNSILNGGC-NH2 (also: non-radioactive ReO complexed to the chelating moiety) [ReO-complexed P916], 4 nM.
Turning to AGCHSDAVFTDNYTRLRKQMAVKKYLNSILN-NH2 (also: non-radioactive ReO complexed to the chelating moiety) [ReO-complexed P915], the IC50 is 6.7 nM.

Another test shares this target. Description: competition with 125I-VIP on human platelets.
With B1, the concentration for half-maximal inhibition (IC50) worked out at 6 nM.
Same read-out and setting: for HSDAVFTDNYTRLRKQMAVKKYLNSILN-NH2 [Vasoactive intestinal peptide (VIP)] the value was 4 nM.
Still for that read-out and setting: for B2 the value was 0.8 nM.
HSDAVFTDNYTRLRKQMAVKKYLNSILNGGC-NH2 (also: non-radioactive ReO complexed to the chelating moiety) [ReO-complexed P916] yielded an IC50 of 3 nM.
As to AGCHSDAVFTDNYTRLRKQMAVKKYLNSILN-NH2 (also: non-radioactive ReO complexed to the chelating moiety) [ReO-complexed P915], the IC50 amounted to 4.5 nM.

In a further test the target is VIP receptor of guinea pig lung membranes (guinea pig). Description: competition with 0.01 nM 125I-VIP, guinea pig lung membranes.
HSDAVFTDNYTRLRKQMAVKKYLNSILNGGC-NH2 [P916] came in with a % inhibition @ 0.01 µM of 79% and an IC50 of less than 10 nM.
The corresponding values for B3 are 83% and less than 10 nM.
The molecule B1 registered a half-inhibitory concentration (IC50) of 20 nM.
In turn, B4 showed a % inhibition @ 0.01 µM of 68% and an IC50 of less than 10 nM.
The molecule AGCHSDAVFTDNYTRLRKQMAVKKYLNSILN-NH2 [P915] displayed an IC50 of 50 nM.
In the case of B2, the IC50 was found to be 6.9 nM and the Ki (in general, a measure of affinity in units of concentration, obtained from inhibition or displacement) worked out at 6.7 nM.
As for HSDAVFTDNYTRLRKQMAVKKYLNSILNGGC-NH2 (also: non-radioactive ReO complexed to the chelating moiety) [ReO-complexed P916], the IC50 was found to be 20 nM.
Same read-out and setting: as for AGCHSDAVFTDNYTRLRKQMAVKKYLNSILN-NH2 (also: non-radioactive ReO complexed to the chelating moiety) [ReO-complexed P915], the figure is < 10 nM and > 1 nM.
